The source of these data is patent US20140309175A1.

The assay deals with C1-Esterase (UniProt P09871). Briefly: cell-based or functional assay.
Sequence of C1-Esterase (P09871 16-688 limits assumed): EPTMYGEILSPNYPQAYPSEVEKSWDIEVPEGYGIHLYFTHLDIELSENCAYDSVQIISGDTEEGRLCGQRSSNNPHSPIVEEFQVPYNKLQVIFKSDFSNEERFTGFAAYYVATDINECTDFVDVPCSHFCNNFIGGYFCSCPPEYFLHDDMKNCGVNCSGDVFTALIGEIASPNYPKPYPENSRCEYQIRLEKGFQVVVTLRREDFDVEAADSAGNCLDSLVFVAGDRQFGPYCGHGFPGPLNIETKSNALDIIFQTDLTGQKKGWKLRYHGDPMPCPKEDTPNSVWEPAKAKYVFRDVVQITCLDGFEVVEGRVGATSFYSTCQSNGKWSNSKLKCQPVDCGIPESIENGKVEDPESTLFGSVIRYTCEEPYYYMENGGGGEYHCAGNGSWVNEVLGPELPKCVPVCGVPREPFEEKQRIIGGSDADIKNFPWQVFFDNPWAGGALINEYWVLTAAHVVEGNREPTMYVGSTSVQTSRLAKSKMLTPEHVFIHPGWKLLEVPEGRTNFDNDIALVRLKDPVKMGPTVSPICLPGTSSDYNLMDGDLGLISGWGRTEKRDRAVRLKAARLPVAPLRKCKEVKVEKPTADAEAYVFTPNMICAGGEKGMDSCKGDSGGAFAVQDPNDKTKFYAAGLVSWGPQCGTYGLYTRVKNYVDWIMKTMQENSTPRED

With “Mal-PEG-C1 INH (C1 esterase inhibitor PEGylated with 40 kDa maleimide mPEG) (from UniProt P05155 23-500)”, the in vitro C1 inhibitory activity turned out to be 6.1 U/mg and the in vitro C1 inhibitory activity, percent of native C1 inhibitor was 86%.
“Mal-U-PEG-C1 INH (C1 inhibitor PEGylated with branched 40k mPEG-maleimide) (from UniProt P05155 23-500)” gave an in vitro C1 inhibitory activity of 3.3 U/mg and an in vitro C1 inhibitory activity, percent of native C1 inhibitor of 47%.
